Values quoted from earlier work, collected in paper PMC7070747.

What was measured:
[1] = target: Fibronectin extra domain B EDB (Homo sapiens) (UniProt P02751)
[2] = target: integrin αvβ3 (Homo sapiens) (UniProt P06756)
[3] = target: integrin αvβ5 (Homo sapiens) (UniProt P06756)

Sequence of UniProt P02751 (P02751 1266-1356): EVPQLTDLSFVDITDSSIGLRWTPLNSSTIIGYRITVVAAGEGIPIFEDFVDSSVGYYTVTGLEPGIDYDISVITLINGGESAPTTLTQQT

Kd [1] [nM]	Kd [2] [nM]	Kd [3] [nM]	Substance
11000			ZD2
	18	62	iRGD
